Where “and” joins values, the source holds several entries; their conditions need not be identical. Equal values may be shown once.
Target: spike BA.1 antigens
Experiment: ELISA (AUC)

B1: S626-161 (antibody, V domains shown)
VH: QLQLQESGPGLVKPSETLSLTCTVSGGSISSNNYYWGWIRQPPGKGLEWIGSIYYSGSTYYNPSLKSRVTMSVDTSKNQFSLKLSSVTAADTAVYHCARQGPNYYDRSGYYYVGPFDIWGQGTMVTVSS
VL: QSVLTQPPSVSAAPGQKVTISCSGSSSNIGNNSVSWYQHLPGTAPKLLIYENNERPSGIPDRFSGSKSGTSATLGITGLQTGDEADYYCETWDRSLSASFGTGTKVTVL
With B1 the fold reduced binding was 1.7 fold and 3.9 fold.

Reference: patent publication US20250026814A1
